Target: insulin (human, UniProt P01308;P01308 25-54;90-110)
Assay: bead-based flow cytometry

insulin, sequence (P01308 25-54, chain 1 of 2): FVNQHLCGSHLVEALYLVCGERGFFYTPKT
insulin, sequence (P01308 90-110, chain 2 of 2): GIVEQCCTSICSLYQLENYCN

B1: IGA3 bt (ssDNA)
DNA: GGTGGTGGGGGGGGTTGGTAGGGTGTCTTC
Kd: 12.7 ± 1.1 µM

Source: paper doi:10.1101/2020.04.25.060004
